Substitutions are numbered along the chain they refer to. Names may count otherwise.
T1: cynomolgus monkey FcγRIIb extracellular domain, His-tagged (cynomolgus monkey)
T1 construct: also called cyno FcgRIIb; cynoFcγRIIb; not shown: His-tag added to the C-terminus
T1 chain: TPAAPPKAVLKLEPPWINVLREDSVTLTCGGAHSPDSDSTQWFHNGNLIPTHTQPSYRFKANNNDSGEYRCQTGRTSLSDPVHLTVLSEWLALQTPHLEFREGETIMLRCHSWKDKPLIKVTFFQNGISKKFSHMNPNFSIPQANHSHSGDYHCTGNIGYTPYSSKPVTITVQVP

T2: human FcγRIIaH extracellular domain, His-tagged (human, UniProt P12318 34-217)
T2 construct: also called human FcgRIIaH; FcγRIIa (type H); not shown: His-tag added to the C-terminus
T2 sequence: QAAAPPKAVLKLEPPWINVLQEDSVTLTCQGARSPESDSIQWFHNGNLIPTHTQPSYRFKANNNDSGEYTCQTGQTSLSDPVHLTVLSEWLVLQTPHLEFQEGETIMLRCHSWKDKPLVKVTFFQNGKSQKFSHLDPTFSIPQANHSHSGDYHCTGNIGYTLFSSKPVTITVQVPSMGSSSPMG

T3: cynomolgus monkey FcγRIIa2 extracellular domain, His-tagged (cynomolgus monkey)
T3 construct: also called cyno FcgRIIa2; cynoFcγRIIa2; not shown: His-tag added to the C-terminus
T3 chain: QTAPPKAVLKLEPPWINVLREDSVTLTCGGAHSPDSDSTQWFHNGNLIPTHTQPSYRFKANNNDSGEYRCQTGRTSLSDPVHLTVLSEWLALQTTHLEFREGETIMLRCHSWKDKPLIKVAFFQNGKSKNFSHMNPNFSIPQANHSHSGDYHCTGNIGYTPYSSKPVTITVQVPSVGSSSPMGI

T4: cynomolgus monkey FcγRIIb extracellular domain, C-terminal His-tag (cynomolgus monkey)
T4 construct: also called cyno FcγRIIb; cynoFcγRIIb; not shown: His-tag added to C-terminus
T4 chain: T1 chain

T5: human FcγRIIaR extracellular domain, C-terminal His-tag (human, UniProt P12318 34-217)
T5 construct: also called human FcγRIIa (type R); FcgRIIaR; not shown: His-tag added to C-terminus
T5 chain: T2 sequence with H134R

T6: cynomolgus monkey FcγRIIa1 extracellular domain, C-terminal His-tag (cynomolgus monkey)
T6 construct: also called cyno FcγRIIa1; cynoFcgRIIa1; not shown: His-tag added to C-terminus
T6 chain: T3 chain with T95P, A121T, K127I, S128A, N130K, N135D, Q142R

T7: cynomolgus monkey FcγRIIa3 extracellular domain, C-terminal His-tag (cynomolgus monkey)
T7 construct: also called cyno FcγRIIa3; cynoFcgRIIa3; not shown: His-tag added to C-terminus
T7 chain: T3 chain with K127I, N130K, H133P, Q142R

T8: human FcγRIIaH extracellular domain, C-terminal His-tag (human, UniProt P12318 34-217)
T8 construct: also called human FcγRIIa (type H); FcgRIIaH; not shown: His-tag added to C-terminus
T8 sequence: T2 sequence

T9: cynomolgus monkey FcγRIIa2 extracellular domain, C-terminal His-tag (cynomolgus monkey)
T9 construct: also called cyno FcγRIIa2; cynoFcgRIIa2; not shown: His-tag added to C-terminus
T9 chain: T3 chain

B1: MS1032LO06-SG1 (M103205H795-SG1/M103202L889-SK1) (antibody, human IgG1, kappa)
heavy: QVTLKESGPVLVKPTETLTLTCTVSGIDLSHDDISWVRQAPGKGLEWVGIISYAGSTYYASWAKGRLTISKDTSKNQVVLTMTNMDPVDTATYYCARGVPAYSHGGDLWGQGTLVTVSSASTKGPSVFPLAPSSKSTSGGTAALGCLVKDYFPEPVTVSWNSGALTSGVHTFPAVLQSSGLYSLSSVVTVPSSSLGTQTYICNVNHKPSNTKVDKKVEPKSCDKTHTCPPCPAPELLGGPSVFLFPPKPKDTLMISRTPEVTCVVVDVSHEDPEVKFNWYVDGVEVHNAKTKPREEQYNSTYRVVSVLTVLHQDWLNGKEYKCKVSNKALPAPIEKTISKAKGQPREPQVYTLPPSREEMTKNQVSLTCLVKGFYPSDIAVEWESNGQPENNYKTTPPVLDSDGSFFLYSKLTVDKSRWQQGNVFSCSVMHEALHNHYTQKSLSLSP
light: DIVMTQSPATLSLSPGERATLSCTSSQSVYHANWLSWFQQKPGQPPKLLIYWASTLAYGVPSRFSGSGSGTDFTLTISSLQPEDAATYYCAGGYGGGRYAFGQGTKVEIKRTVAAPSVFIFPPSDEQLKSGTASVVCLLNNFYPREAKVQWKVDNALQSGNSQESVTEQDSKDSTYSLSSTLTLSKADYEKHKVYACEVTHQGLSSPVTKSFNRGEC
notes: Anti-latent myostatin antibody; Parent of the Fc variants; copies: 2 + 2
B2: M103205H795-MY264/M103202L889-SK1 (antibody, human IgG1, kappa)
heavy: QVTLKESGPVLVKPTETLTLTCTVSGIDLSHDDISWVRQAPGKGLEWVGIISYAGSTYYASWAKGRLTISKDTSKNQVVLTMTNMDPVDTATYYCARGVPAYSHGGDLWGQGTLVTVSSASTKGPSVFPLAPSSKSTSGGTAALGCLVKDYFPEPVTVSWNSGALTSGVHTFPAVLQSSGLYSLSSVVTVPSSSLGTQTYICNVNHKPSNTKVDKKVEPKSCDKTHTCPPCPAPELLLGPSVFLFPPKPKDTLMISRTPEVTCVVVDVSDEDPEVKFNWYVDGVEVHNAKTKPREEQYNSTYRVVSVLTVLHQDWLNGKEYKCKVSNKALPKPIEKTISKAKGQPREPQVYTLPPSREEMTKNQVSLTCLVKGFYPSDIAVEWESNGQPENNYKTTPPVLDSDGSFFLYSKLTVDKSRWQQGNVFSCSVMHEALHNHYTQKSLSLSP
light: B1 light
notes: copies: 2 + 2
B3: M103205H795-MY265/M103202L889-SK1 (antibody, human IgG1, kappa)
heavy: B2 heavy with L238T
light: B1 light
notes: copies: 2 + 2
B4: M103205H795-MY267/M103202L889-SK1 (antibody, human IgG1, kappa)
heavy: B2 heavy with L238I
light: B1 light
notes: copies: 2 + 2
B5: M103205H795-MY263/M103202L889-SK1 (antibody, human IgG1, kappa)
heavy: B2 heavy with L238Q
light: B1 light
notes: copies: 2 + 2
B6: M103205H795-MY261/M103202L889-SK1 (antibody, human IgG1, kappa)
heavy: B2 heavy with L238H
light: B1 light
notes: copies: 2 + 2
B7: M103205H795-MY260/M103202L889-SK1 (antibody, human IgG1, kappa)
heavy: B2 heavy with L238M
light: B1 light
notes: copies: 2 + 2
B8: M103205H795-MY262/M103202L889-SK1 (antibody, human IgG1, kappa)
heavy: B2 heavy with L238V
light: B1 light
notes: copies: 2 + 2
B9: M103205H795-MY201/M103202L889-SK1 (antibody, human IgG1, kappa)
heavy: B2 heavy with L238N
light: B1 light
notes: Fc variant G236N/H268D/A330K (EU numbering) of SG1; also called MS1032LO06-MY201; copies: 2 + 2
B10: MS_M103205H795-SG1/M103202L889-SK1 (antibody, human IgG1, kappa)
heavy: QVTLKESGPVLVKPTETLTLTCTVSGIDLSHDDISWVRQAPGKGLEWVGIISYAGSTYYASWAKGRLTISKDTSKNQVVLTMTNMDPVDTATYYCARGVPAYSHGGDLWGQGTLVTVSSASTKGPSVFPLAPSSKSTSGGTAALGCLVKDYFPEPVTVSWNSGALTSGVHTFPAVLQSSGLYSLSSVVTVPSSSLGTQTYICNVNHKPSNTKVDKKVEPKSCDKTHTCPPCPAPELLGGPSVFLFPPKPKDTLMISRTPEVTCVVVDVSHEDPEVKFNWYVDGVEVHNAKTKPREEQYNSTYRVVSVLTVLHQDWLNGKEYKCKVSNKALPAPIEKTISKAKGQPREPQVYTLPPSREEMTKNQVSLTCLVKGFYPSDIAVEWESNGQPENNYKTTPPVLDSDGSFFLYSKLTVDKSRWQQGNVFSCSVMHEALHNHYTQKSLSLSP
light: B1 light
notes: Parent antibody with SG1 human heavy chain constant region; also called MS1032LO06-SG1

Molecular target: T1, cynomolgus monkey FcγRIIb extracellular …
Assay: SPR; KD of SG1 divided by KD of the variant;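 note: relative to parent M103205H795-SG1 carrying the SG1 human heavy chain constant region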
Procedure: (§1) Regarding such interactions, KD values were calculated using the following 1:1 binding model described in BIACORE® T100 Software Handbook BR1006-48 Edition AE.
(§2) The behavior of interacting molecules according to the 1:1 binding model on BIACORE® can be described by Equation 1: Req=C·R max/(KD+C)+RI, wherein, Req is a plot of steady-state binding levels to analyte concentration. C is concentration, RI is bulk refractive index contribution in the sample, and Rmax is analyte binding capacity of the surface. When this equation is rearranged, KD can be expressed as Equation 2: KD=C·Rmax/(Req−RI)−C. KD can be calculated by substituting the values of Rmax, RI, and C into Equation 1 or Equation 2. From the current measurement conditions, RI=0, C=2 μmol/L can be used.
(§3) The resultant variants were expressed using M103202L889-SK1 as light chain and their affinity to human and cynoFcγRs were evaluated (Table 21).

Binder	KD fold (SG1 = 1)
B1	1 fold
B2	0.7 fold
B3	3.1 fold
B4	2.1 fold
B5	1.8 fold
B6	1.2 fold
B7	1.1 fold
B8	3.2 fold
B9	4.2 fold

molecular target: T2, human FcγRIIaH extracellular domain, …; assay: SPR; KD of SG1 divided by KD of the variant;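 note: relative to parent M103205H795-SG1 carrying the SG1 human heavy chain constant region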
Procedure: as §1, §2, §3

Binder	KD fold (SG1 = 1)
B1	1 fold
B2	0.5 fold
B3	3.3 fold
B4	3.5 fold
B5	2.2 fold
B6	2.9 fold
B7	0.8 fold
B8	4.9 fold
B9	0.8 fold

Molecular target: T3, cynomolgus monkey FcγRIIa2 …
Assay: SPR; KD of SG1 divided by KD of the variant;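 note: relative to parent M103205H795-SG1 carrying the SG1 human heavy chain constant region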
Procedure: as §1, §2, §3

Binder	KD fold (SG1 = 1)
B1	1 fold
B2	0.9 fold
B3	2.7 fold
B4	2.6 fold
B5	1.7 fold
B6	1.3 fold
B7	1.4 fold
B8	3 fold
B9	3.6 fold

Molecular target: T4, cynomolgus monkey FcγRIIb extracellular …
Assay: SPR (BIACORE), antibody captured, FcγR analyte

Binder	Kd
B10	1.9 µM

Molecular target: T5, human FcγRIIaR extracellular domain, …
Assay: SPR (BIACORE), antibody captured, FcγR analyte

Binder	Kd
B10	1 µM

Molecular target: T6, cynomolgus monkey FcγRIIa1 …
Assay: SPR (BIACORE), antibody captured, FcγR analyte

Binder	Kd
B10	4.8 µM

Molecular target: T7, cynomolgus monkey FcγRIIa3 …
Assay: SPR (BIACORE), antibody captured, FcγR analyte

Binder	Kd
B10	8.6 µM

molecular target: T8, human FcγRIIaH extracellular domain, …; assay: SPR (BIACORE), antibody captured, FcγR analyte

Binder	Kd
B10	0.89 µM

Molecular target: T9, cynomolgus monkey FcγRIIa2 …
Assay: SPR (BIACORE), antibody captured, FcγR analyte

Binder	Kd
B10	4.7 µM
